# Experimental data taken from patent publication US20200040058A1 (JULIUS MAXIMILIANS UNIVERSIT T W RZBURG, published 2020).
# B1: humanized R12 ROR1 CAR (other)
# chain: QVQLVESGGALVQPGGSLTLSCKASGFDFSAYYMSWVRQAPGKGLEWIATIYPSSGKTYYAASVQGRFTISADNAKNTVYLQMNSLTAADTATYFCARDSYADDGALFNIWGQGTLVTVSSGGGGSGGGGSGGGGSQLVLTQSPSVSAALGSSAKITCTLSSAHKTDTIDWYQQLAGQAPRYLMYVQSDGSYEKRSGVPDRFSGSSSGADRYLIISSVQADDEADYYCGADYIGGYVFGGGTQLTVGESKYGPPCPPCPMFWVLVVVGGVLACYSLLVTVAFIIFWVKRGRKKLLYIFKQPFMRPVQTTQEEDGCSCRFPEEEEGGCELRVKFSRSADAPAYQQGQNQLYNELNLGRREEYDVLDKRRGRDPEMGGKPRRKNPQEGLYNELQKDKMAEAYSEIGMKGERRRGKGHDGLYQGLSTATKDTYDALHMQALPPR
# notes: Chimeric antigen receptor with an scFv targeting domain, on primary human T cells; also called hR12 CAR; hR12
# B2: humanized 2A2 ROR1 CAR (other)
# chain: EVQLVQSGAEVKKPGASVKVSCKASGYTFSDYEMHWVRQAPGQGLEWLGAIDPETGGTAYNQKFKGRVTMTGDTSISTAYMELSRLTSDDTAVYYCTGYYDYDSFTYWGQGTLVSVSSGGGGSGGGGSGGGGSDIQMTQSPSSLSTSVGDRVTITCKASQNVDAAVAWYQQKPGKAPKLLIYSASNRYTGVASRFSGSGSGTDFTFTISSLQSEDLADYFCQQYDIYPYTFGQGTKLEIKESKYGPPCPPCPMFWVLVVVGGVLACYSLLVTVAFIIFWVKRGRKKLLYIFKQPFMRPVQTTQEEDGCSCRFPEEEEGGCELRVKFSRSADAPAYQQGQNQLYNELNLGRREEYDVLDKRRGRDPEMGGKPRRKNPQEGLYNELQKDKMAEAYSEIGMKGERRRGKGHDGLYQGLSTATKDTYDALHMQALPPR
# notes: Chimeric antigen receptor with an scFv targeting domain, expressed on primary human T cells after lentiviral transduction; also called h2A2 CAR; h2A2
# B3: non-humanized R12 ROR1 CAR (other)
# chain: QEQLVESGGRLVTPGGSLTLSCKASGFDFSAYYMSWVRQAPGKGLEWIATIYPSSGKTYYATWVNGRFTISSDNAQNTVDLQMNSLTAADRATYFCARDSYADDGALFNIWGPGTLVTISSGGGGSGGGGSGGGGSELVLTQSPSVSAALGSPAKITCTLSSAHKTDTIDWYQQLQGEAPRYLMQVQSDGSYTKRPGVPDRFSGSSSGADRYLIIPSVQADDEADYYCGADYIGGYVFGGGTQLTVTG
# notes: Chimeric antigen receptor on primary human T cells; also called R12 CAR; non-humanized R12 CAR; not shown: spacer, transmembrane, 4-1BB and CD3z parts of the non-humanized CAR are not spelled out; construct described only by re
# B4: non-humanized 2A2 ROR1 CAR (other)
# chain: QVQLQQSGAELVRPGASVTLSCKASGYTFSDYEMHWVIQTPVHGLEWIGAIDPETGGTAYNQKFKGKAILTADKSSSTAYMELRSLTSEDSAVYYCTGYYDYDSFTYWGQGTLVTVSAGGGGSGGGGSGGGGSDIVMTQSQKIMSTTVGDRVSITCKASQNVDAAVAWYQQKPGQSPKLLIYSASNRYTGVPDRFTGSGSGTDFTLTISNMQSEDLADYFCQQYDIYPYTFGGGTKLEIK
# notes: Chimeric antigen receptor on primary human T cells; also called 2A2 CAR; non-humanized 2A2 CAR; not shown: spacer, transmembrane, 4-1BB and CD3z parts of the non-humanized CAR are not spelled out; construct described only by re
# Molecular target: ROR1 on ROR1-positive target cells (K562-ROR1, MDA-MB-231, A549) (human, UniProt Q01973 30-937)
# Experiment: cell-based or functional assay
# ROR1 on ROR1-positive target cells (K562-ROR1, MDA-MB-231, A549), sequence (Q01973 30-937): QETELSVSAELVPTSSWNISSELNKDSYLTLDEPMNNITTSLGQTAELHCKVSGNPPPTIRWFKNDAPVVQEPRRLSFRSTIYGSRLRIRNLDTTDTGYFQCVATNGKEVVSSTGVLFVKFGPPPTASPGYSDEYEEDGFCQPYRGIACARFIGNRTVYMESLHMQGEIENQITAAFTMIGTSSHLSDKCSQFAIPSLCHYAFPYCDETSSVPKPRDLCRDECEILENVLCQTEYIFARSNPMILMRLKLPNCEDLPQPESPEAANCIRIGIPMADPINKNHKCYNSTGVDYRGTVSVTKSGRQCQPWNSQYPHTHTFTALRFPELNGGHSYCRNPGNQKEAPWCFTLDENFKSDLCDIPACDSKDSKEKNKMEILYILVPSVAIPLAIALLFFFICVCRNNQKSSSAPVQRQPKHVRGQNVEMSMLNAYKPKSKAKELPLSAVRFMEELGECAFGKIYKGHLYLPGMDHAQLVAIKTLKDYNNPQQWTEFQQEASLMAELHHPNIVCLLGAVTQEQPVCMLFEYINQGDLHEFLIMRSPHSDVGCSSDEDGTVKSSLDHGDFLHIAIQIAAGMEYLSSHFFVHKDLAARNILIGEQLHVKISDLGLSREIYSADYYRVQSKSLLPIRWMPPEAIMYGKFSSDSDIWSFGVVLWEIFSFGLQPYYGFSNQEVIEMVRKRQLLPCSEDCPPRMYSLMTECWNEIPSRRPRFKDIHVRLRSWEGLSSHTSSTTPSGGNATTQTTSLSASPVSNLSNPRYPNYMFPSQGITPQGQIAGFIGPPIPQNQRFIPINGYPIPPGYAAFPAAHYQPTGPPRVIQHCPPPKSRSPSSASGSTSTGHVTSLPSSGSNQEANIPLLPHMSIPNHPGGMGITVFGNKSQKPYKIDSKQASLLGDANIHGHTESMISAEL
row,Binder,"proliferation index with MDA-MB-231 target cells, fold against the non-humanized R12 CAR [fold]"
1,B1,~2

# Molecular target: T1, Recombinant aggregated ROR1 protein, AlexaFluor647-labeled (UniProt Q01973 30-403, limits assumed, labeled with AlexaFluor647)
# T1 construct: Soluble labelled protein used to stain CAR T cells; also called ROR1 antigen
# Experiment: flow cytometry; CAR T cells stained with 5.3 µg/ml AlexaFluor647-labeled aggregated ROR1
# Procedure: Afterwards the cells were washed with PBS, 0.25% FCS and analyzed by flow cytometry.
# Recombinant aggregated ROR1 protein was labeled with the AlexaFluor647 labeling kit (ThermoFisher Scientific, MA) and used to stain T cells expressing ROR1 CARs. The T cells were washed once in PBS, 0.25% FCS and then resuspended in the same buffer containing a final concentration of 5.3 μg/ml labeled ROR1 protein and monoclonal αEGFRt antibody. After an incubation time of 15 min the cells were washed with an excess of PBS, 0.25% FCS and analyzed by flow cytometry.
# T1 sequence (Q01973 30-403 limits assumed): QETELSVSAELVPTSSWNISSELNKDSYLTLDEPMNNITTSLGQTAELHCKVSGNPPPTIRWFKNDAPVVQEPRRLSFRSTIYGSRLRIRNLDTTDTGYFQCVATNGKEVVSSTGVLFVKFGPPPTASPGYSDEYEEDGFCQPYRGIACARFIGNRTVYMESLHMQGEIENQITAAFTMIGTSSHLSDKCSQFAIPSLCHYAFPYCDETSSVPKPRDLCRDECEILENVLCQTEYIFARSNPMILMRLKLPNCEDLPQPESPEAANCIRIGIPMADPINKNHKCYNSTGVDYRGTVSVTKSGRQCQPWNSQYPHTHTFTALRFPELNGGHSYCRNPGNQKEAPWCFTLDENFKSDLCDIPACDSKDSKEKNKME
Binder,percentage of T cells with a distinct AlexaFluor647 signal [%],percentage of T cells with high AlexaFluor647 signal [%]
B2,92.1,20
B3,47.6,0.7
B1,79,7.68
B4,62.7,2.61
